{"source": "paper doi:10.1101/2025.03.21.644400", "biological_target": "MIYEI", "assay": "crystal structure", "data": [{"substance": "MIYEI", "values": [{"measurement": "stoichiometry N", "result": 2}]}]}
